Here are results for two molecules from publication PMC7022552, “Structural and Functional Analyses of Human ChaC2 in Glutathione Metabolism” (Biomolecules, 2019).

The term stoichiometry N denotes a count of units in the complex or per binding partner.

Where “and” joins values, the source holds several entries; their conditions need not be identical. Equal entries are not always repeated.

In data set [1] the target is human ChaC2 (wild type) (human) (UniProt Q8WUX2). The experiment in a line: crystal structure; wild type ChaC2 crystals, hanging drop, 14% PEG 8000, 14% ethylene glycol, 100 mM HEPES pH 7.5, 22 °C; three molecules in the asymmetric unit, each in a crystallographic dimer with a molecule of a nearby asymmetric unit.
Data set [2] concerns the molecule itself. The experiment in a line: SEC; HiLoad 16/600 Superdex 75 pg, 20 mM Tris-HCl pH 7.1, 150 mM NaCl, 5 mM DTT, 2% glycerol, 1 mL/min, calibrated with molecular weight standards. For orientation: In gel filtration, larger molecules generally elute earlier.

Take “human ChaC2 (wild type) (from UniProt Q8WUX2 1-184) (enzyme)”: the stoichiometry N in data set [1] came to 2.

B1: human ChaC1 (enzyme, UniProt Q9BUX1 1-222, looked up)
chain: MKQESAAPNTPPTSQSPTPSAQFPRNDGDPQALWIFGYGSLVWRPDFAYSDSRVGFVRGYSRRFWQGDTFHRGSDKMPGRVVTLLEDHEGCTWGVAYQVQGEQVSKALKYLNVREAVLGGYDTKEVTFYPQDAPDQPLKALAYVATPQNPGYLGPAPEEAIATQILACRGFSGHNLEYLLRLADFMQLCGPQAQDEHLAAIVDAVGTMLPCFCPTEQALALV
notes: human ChaC1, cDNA from the Korean Human Gene Bank, cloned into pET-21a between BamHI and XhoI; source: E. coli C41 (DE3), purified (Ni2+ HiTrap Chelating HP, HiTrap Q HP, Superdex 75 pg)
For the molecule B1, in data set [2], the “stoichiometry N” value is 2 and 4.
